The test system of data set [1] is Ape-MnP1. Conditions: read-out: Ape-MnP1 Q333P; 0.3 mM H2O2, 100 mM sodium tartrate, optimal pH, 25 °C.
The subject of data set [2] is Ape-MnP1. Put plainly: steady-state oxidation, coerulignone formation at […] nm. The conditions noted are these: 0.3 mM H2O2, 100 mM sodium tartrate, optimal pH, 25 °C; read-out: Ape-MnP1 Q333P. The format is biochemical, Agrocybe pediades.
Substrate in data set [3]: CCn1c(=NN=c2sc3cc(S(=O)(=O)O)ccc3n2CC)sc2cc(S(=O)(=O)O)ccc21
Description: purified protein. The format is biochemical, Cyathus striatus. The conditions noted are these: 0.3 mM H2O2, 100 mM sodium tartrate, optimal pH, 25 °C.

Substrate in data set [4]: COc1cccc(OC)c1O
Put plainly: purified protein. The format is biochemical, Cyathus striatus. Conditions: 0.3 mM H2O2, 100 mM sodium tartrate, optimal pH, 25 °C.

Substrate in data set [5]: CCn1c(=NN=c2sc3cc(S(=O)(=O)O)ccc3n2CC)sc2cc(S(=O)(=O)O)ccc21
Description: purified protein. The format is biochemical, Agrocybe pediades. Conditions: 0.3 mM H2O2, 100 mM sodium tartrate, optimal pH, 25 °C.

Substrate in data set [6]: COc1cccc(OC)c1O
Put plainly: purified protein. The format is biochemical, Agrocybe pediades. The conditions noted are these: 0.3 mM H2O2, 100 mM sodium tartrate, optimal pH, 25 °C.

Changes are numbered by the printed parent chain. Numbers in names are those of the source. Read-outs that look alike come from different tables or passages of the source.

Take `CCn1c(=NN=c2sc3cc(S(=O)(=O)O)ccc3n2CC)sc2cc(S(=O)(=O)O)ccc21` [ABTS]: the Km in the data set with Ape-MnP1 [1] worked out at 1890 ± 250 µM.

On to `COc1cccc(OC)c1O` [DMP], for which the Km with Ape-MnP1 [2] was determined as 2900 ± 590 µM.

B1: Cst-MnP1 (Cyathus striatus) (protein)
chain: VTCPDGHVTANRACCALFPVVQNLQENLFDGGECGEEAHSALRLSFHDAIGFSLNSNKGGGADGSILLFNATELTFHANGGIDDITSRQFPVFETTGLTPGDFVHLAGAVGTANCPGAPRLQFMFGRPPPIAPAPDLTVPEPTDDVDAILARFADAGFDASEVVALLSSHTIAAADVVDVTIPGTPFDSTVGTFDTQVFLEVLLAGRSFPGNGSQPGEVLSPLAGEMRLQSDFVVSRDSRTACLWQAMVNNQQLMVSSFAAAMAKLQVLGQNVNTMVDCSDVIPEPAPFAGPIKFPASFSMADVEQACASTFPQIQTVAGPAPTVAPVPGS
A word on the kcat: it is the number of substrate molecules converted per active site and unit of time at saturation. The term kcat/Km denotes the turnover number divided by the Michaelis constant. On to B1, for which, in the data set “purified protein [3]”, the Km is given as 3250 ± 220 µM, the kcat worked out at 60 ± 1.4 s⁻¹ and the kcat/Km came to 18000 ± 1300 M⁻¹ s⁻¹. In addition, in the data set “purified protein [4]”, the Km was determined as 4650 ± 560 µM, the kcat worked out at 4.2 ± 0.2 s⁻¹ and the kcat/Km worked out at 980 ± 120 M⁻¹ s⁻¹.

B2: Cst-MnP1 (Cyathus striatus; E36A) (protein)
chain: B1 chain with E36A
For the molecule B2, in the data set “purified protein [3]”, the Km was found to be 1900 ± 455 µM, the kcat was determined as 67 ± 18 s⁻¹ and the kcat/Km is 35500 ± 12800 M⁻¹ s⁻¹. In addition, in “purified protein [4]”, the Km is 2120 ± 500 µM, the turnover number (kcat) was found to be 2.62 ± 0.17 s⁻¹ and the specificity constant (kcat/Km) was 1240 ± 300 M⁻¹ s⁻¹.

B3: Cst-MnP1 (Cyathus striatus; S40A) (protein)
chain: B1 chain with S40A
In the case of B3, in “purified protein [3]”, the Km amounted to 2990 ± 455 µM, the kcat amounted to 112 ± 4.6 s⁻¹ and the kcat/Km came out at 37500 ± 5900 M⁻¹ s⁻¹.

B4: Ape-MnP1 (Agrocybe pediades) (protein)
chain: TICADGTSVANGACCKLIPVVKDLTENLFEGECGDAAHGALRLVFHDAIAISPTLGGGGADGSIAVFNATELTFHANTGIDDVLDAVGPFLLKHSDVMTPGDFIQLAGAVSLTQCNGAPRVKFVMGRPPPKAAAPNLLVPEPFDSVATILQRFGELGFTKEETVAVIGGSHSVAGADDIVPNEQGIPFDQTPSIFDTQIFVDVQLRGTMIPGNGTTEGEVETAVPGTVRLQSDHLLARDASTSCIWQSFVNQQSKMAQVFGEAIFKMSLLGQTQSKLIDCSEVIPRAIPFSHGPATLPPGQTLKDIEQACAASPFPTLSTQPGPVTSVPAIPQADDS
For B4, in the data set “purified protein [5]”, the Km was determined as 2730 ± 280 µM, the kcat amounted to 146 ± 6 s⁻¹ and the kcat/Km was 53000 ± 6000 M⁻¹ s⁻¹. For the same molecule, in the data set “purified protein [6]”, the Km was determined as 2880 ± 490 µM, the kcat turned out to be 11.5 ± 0.8 s⁻¹ and the kcat/Km amounted to 4200 ± 500 M⁻¹ s⁻¹.

(Values after PMC11144326, “Structure–function characterization of two enzymes from novel subfamilies of manganese peroxidases secreted by the lignocellulose-degrading Agaricales fungi Agrocybe pediades and Cyathus striatus” (Biotechnology for Biofuels and Bioproducts, 2024).)
